Assay results reported in PMC4609183.

The substances below were run against R0RBR parkin (residues 141–465, lacking Ubl domain and linker) (human) (UniProt O60260) (assay: ITC; 50 μM R0RBR, full-length parkin or phosphoparkin titrated with Ub, Ubl or their variants; 25°C; 50 mM HEPES, 50 mM NaCl, 250 μM TCEP pH 7.5 or 50 mM HEPES, 150 mM NaCl, 0.5 mM TCEP pH 8.0; single-site model).

Kd [µM]	dH [kcal/mol]	stoichiometry N	Substance
5.3	-11	0.98	parkin Ubl domain S65E (domain or fragment)
5	-9.08	1.03	parkin Ubl domain S65D (from UniProt O60260 144-465) (domain or fragment)
26	-3.82	1.04	phosphorylated parkin Ubl domain (domain or fragment)
